Measurements from paper PMC5788269, “Architecture of eukaryotic mRNA 3′-end processing machinery” (Science (New York, N.y.), 2017).

T1: Cft1 (recombinant, polymerase module) (yeast, UniProt Q06632 1-1357)
T1 construct: Cft1, yeast; ordered in the cryo-EM map: residues 1 to 1357 (several loops not visible); source: overexpressed in insect cells, purified as part of the polymerase module
T1 sequence: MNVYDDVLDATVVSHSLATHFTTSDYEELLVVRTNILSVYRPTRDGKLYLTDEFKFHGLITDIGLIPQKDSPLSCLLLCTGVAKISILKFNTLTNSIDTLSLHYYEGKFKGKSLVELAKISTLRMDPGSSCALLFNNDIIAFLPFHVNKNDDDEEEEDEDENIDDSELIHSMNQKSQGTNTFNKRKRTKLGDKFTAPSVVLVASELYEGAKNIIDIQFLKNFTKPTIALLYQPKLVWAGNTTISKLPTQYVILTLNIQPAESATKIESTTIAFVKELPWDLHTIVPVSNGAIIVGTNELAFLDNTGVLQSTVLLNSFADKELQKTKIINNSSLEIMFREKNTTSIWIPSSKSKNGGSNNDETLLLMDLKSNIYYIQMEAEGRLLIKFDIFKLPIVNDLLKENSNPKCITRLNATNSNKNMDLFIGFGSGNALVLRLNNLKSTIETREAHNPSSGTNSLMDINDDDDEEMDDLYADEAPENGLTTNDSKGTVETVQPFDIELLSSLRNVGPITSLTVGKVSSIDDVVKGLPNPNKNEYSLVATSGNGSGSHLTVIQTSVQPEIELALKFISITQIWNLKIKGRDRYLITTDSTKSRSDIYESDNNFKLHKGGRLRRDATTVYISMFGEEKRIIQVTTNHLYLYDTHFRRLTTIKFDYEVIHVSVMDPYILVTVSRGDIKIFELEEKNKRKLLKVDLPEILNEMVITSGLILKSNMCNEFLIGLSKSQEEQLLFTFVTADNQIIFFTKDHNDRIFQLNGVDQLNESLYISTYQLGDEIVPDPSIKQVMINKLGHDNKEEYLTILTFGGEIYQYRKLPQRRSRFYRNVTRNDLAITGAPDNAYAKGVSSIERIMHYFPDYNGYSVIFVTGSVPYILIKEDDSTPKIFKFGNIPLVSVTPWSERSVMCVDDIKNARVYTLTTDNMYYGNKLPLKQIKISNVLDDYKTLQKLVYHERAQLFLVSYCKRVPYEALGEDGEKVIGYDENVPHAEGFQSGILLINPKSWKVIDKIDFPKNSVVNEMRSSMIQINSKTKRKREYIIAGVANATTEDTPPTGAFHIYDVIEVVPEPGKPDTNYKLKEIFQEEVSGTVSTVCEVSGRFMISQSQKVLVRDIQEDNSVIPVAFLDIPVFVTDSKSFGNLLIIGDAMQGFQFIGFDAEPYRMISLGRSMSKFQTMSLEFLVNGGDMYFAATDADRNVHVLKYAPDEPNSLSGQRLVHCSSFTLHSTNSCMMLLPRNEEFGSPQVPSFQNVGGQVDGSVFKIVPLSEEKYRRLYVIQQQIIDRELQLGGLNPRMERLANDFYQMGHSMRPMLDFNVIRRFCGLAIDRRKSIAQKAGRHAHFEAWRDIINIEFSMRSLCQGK

B1: Pfs2 (recombinant, polymerase module) (natural protein, yeast)
chain: MDGHNQNQYQNQNQIQQSQQPPLKKYVTQRRSVDVSSPYINLYYNRRHGLPNLVVEPETSYTIDIMPPNAYRGRDRVINLPSKFTHLSSNKVKHVIPAIQWTPEGRRLVVATYSGEFSLWNASSFTFETLMQAHDSAVTTMKYSHDSDWMISGDADGMIKIWQPNFSMVKEIDAAHTESIRDMAFSSNDSKFVTCSDDNILKIWNFSNGKQERVLSGHHWDVKSCDWHPEMGLIASASKDNLVKLWDPRSGNCISSILKFKHTVLKTRFQPTKGNLLMAISKDKSCRVFDIRYSMKELMCVRDETDYMTLEWHPINESMFTLACYDGSLKHFDLLQNLNEPILTIPYAHDKCITSLSYNPVGHIFATAAKDRTIRFWTRARPIDPNAYDDPTYNNKKINGWFFGINNDINAVREKSEFGAAPPPPATLEPHALPNMNGFINKKPRQEIPGIDSNIKSSTLPGLSI
notes: Pfs2, yeast; ordered in the cryo-EM map: residues 27 to 411; source: overexpressed in insect cells, purified as part of the polymerase module
B2: Fip1 (recombinant, polymerase module) (natural protein, yeast, UniProt P45976 1-327, looked up)
chain: MSSSEDEDDKFLYGSDSELALPSSKRSRDDEADAGASSNPDIVKRQKFDSPVEETPATARDDRSDEDIYSDSSDDDSDSDLEVIISLGPDPTRLDAKLLDSYSTAATSSSKDVISVATDVSNTITKTSDERLITEGEANQGVTATTVKATESDGNVPKAMTGSIDLDKEGIFDSVGITTIDPEVLKEKPWRQPGANLSDYFNYGFNEFTWMEYLHRQEKLQQDYNPRRILMGLLSLQQQGKLNSANDTDSNLGNIIDNNNNVNNANMSNLNSNMGNSMSGTPNPPAPPMHPSFPPLPMFGSFPPFPMPGMMPPMNQQPNQNQNQNSK
notes: Fip1, yeast; present in the four-subunit complex but not visible in the cryo-EM map; source: overexpressed in insect cells, purified as part of the polymerase module
B3: Pap1 (recombinant, polymerase module) (enzyme, yeast, UniProt P29468 1-568, looked up)
chain: MSSQKVFGITGPVSTVGATAAENKLNDSLIQELKKEGSFETEQETANRVQVLKILQELAQRFVYEVSKKKNMSDGMARDAGGKIFTYGSYRLGVHGPGSDIDTLVVVPKHVTREDFFTVFDSLLRERKELDEIAPVPDAFVPIIKIKFSGISIDLICARLDQPQVPLSLTLSDKNLLRNLDEKDLRALNGTRVTDEILELVPKPNVFRIALRAIKLWAQRRAVYANIFGFPGGVAWAMLVARICQLYPNACSAVILNRFFIILSEWNWPQPVILKPIEDGPLQVRVWNPKIYAQDRSHRMPVITPAYPSMCATHNITESTKKVILQEFVRGVQITNDIFSNKKSWANLFEKNDFFFRYKFYLEITAYTRGSDEQHLKWSGLVESKVRLLVMKLEVLAGIKIAHPFTKPFESSYCCPTEDDYEMIQDKYGSHKTETALNALKLVTDENKEEESIKDAPKAYLSTMYIGLDFNIENKKEKVDIHIPCTEFVNLCRSFNEDYGDHKVFNLALRFVKGYDLPDEVFDENEKRPSKKSKRKNLDARHETVKRSKSDAASGDNINGTTAAVDVN
notes: Pap1 poly(A) polymerase, yeast; source: overexpressed in insect cells, purified as part of the polymerase module

What was measured:
Conditions in all cases: both partners purified
[1] = molecular target: B1; assay: cryo-EM structure; recombinant four-subunit complex (Cft1, Pfs2, Yth1, Fip1) overexpressed in insect cells; overall resolution 3.5 Å
[2] = molecular target: T1, Cft1 (recombinant, polymerase module); assay: as above
[3] = molecular target: B2; assay: cross-linking; cross-linking mass spectrometry of the polymerase module, to determine where Pap1 and Fip1 bind
[4] = molecular target: B3; assay: as above
[5] = molecular target: T1, Cft1 (recombinant, polymerase module); assay: as above

binding result [1] | binding result [2] | binding result [3] | binding result [4] | binding result [5] | Binder
binds | binds | binds | binds |  | Yth1 (recombinant, polymerase module) (natural protein, yeast, Yth1, yeast; ordered in the cryo-EM map: residues 1 to 94; zinc fingers 3 to 5 (residues 95 to 208) not visible; source: overexpressed in insect cells, purified as part of the polymerase module) SLIHPDTAKYPFKFEPFLRQEYSFSLDPDRPICEFYNSREGPKSCPRGPLCPKKHVLPIFQNKIVCRHWLRGLCKKNDQCEYLHEYNLRKMPECVFFSKNGYCTQSPDCQYLHIDPASKIPKCENYEMGFCPLGSSCPRRHIKKVFCQRYMTGFCPLGKDECDMEHPQFIIPDEGSKLRIKRDDEINTRKMDEEKERRLNAIINGEV
 | binds |  | binds |  | B1
 |  |  | binds |  | B2
 |  |  |  | binds | B3
